In assay [1] the target is T1, musculus FcRn-alpha (mouse, UniProt Q61559 22-297, limits assumed).
T1 construct: Alpha chain alone; also called mFcRn; mouse FcRn; not shown: His tag and Avi tag
T1 sequence: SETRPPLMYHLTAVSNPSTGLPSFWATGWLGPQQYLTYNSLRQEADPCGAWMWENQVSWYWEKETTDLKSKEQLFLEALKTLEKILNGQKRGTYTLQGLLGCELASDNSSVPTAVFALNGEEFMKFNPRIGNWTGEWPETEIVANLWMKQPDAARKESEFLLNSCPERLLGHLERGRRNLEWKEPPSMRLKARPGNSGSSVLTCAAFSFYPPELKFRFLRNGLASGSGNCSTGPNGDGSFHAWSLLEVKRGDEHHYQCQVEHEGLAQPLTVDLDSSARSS
The assay can be described thus: ELISA: mFcRn coated, antibody titrated, goat anti-human IgG Fab-HRP, OD450. (ELISA stands for enzyme-linked immunosorbent assay.)

For assay [2], the target named is T2, human B2M (human, UniProt P61769 21-119, limits assumed).
T2 construct: also called beta-2-microglobulin; not shown: His tag and Avi tag
T2 sequence (P61769 21-119 limits assumed): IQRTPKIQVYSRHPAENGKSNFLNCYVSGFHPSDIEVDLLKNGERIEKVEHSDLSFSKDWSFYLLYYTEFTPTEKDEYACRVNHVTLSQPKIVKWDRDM
As to the kind of experiment: ELISA: human B2M coated, antibody titrated, OD450.

In assay [3] the target is T3, human FCGRT (human, UniProt P55899 24-297, biotinylated (Avi tag) in the blocking assays).
T3 construct: Alpha chain alone, expressed in Expi293 cells with His and Avi tags; also called FCGRT of human FcRn protein; biotinylated human FCGRT; not shown: His tag and Avi tag
T3 sequence (P55899 24-297 limits assumed): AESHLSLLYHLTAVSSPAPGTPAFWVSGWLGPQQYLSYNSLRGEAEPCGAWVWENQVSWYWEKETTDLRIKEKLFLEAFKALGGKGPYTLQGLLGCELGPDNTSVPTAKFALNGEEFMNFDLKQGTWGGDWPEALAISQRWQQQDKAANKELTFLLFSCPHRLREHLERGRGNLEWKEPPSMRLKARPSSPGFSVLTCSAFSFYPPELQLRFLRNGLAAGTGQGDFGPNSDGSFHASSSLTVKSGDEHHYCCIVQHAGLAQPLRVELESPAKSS
The assay can be described thus: blocking ELISA: human IgG coated, biotinylated human FCGRT plus titrated antibody, SA-HRP, OD450; blocked ligand: human IgG.

Assay [4] has as its target T4, Cynomolgus monkey FcRn-alpha (cynomolgus monkey, UniProt Q8SPV9 24-297, limits assumed).
T4 construct: The printed entry looks like the full-length precursor (signal peptide, transmembrane and cytoplasmic parts); also called cynoFcRn; not shown: His tag and Avi tag
The assay can be described thus: ELISA: cynoFcRn coated, antibody titrated, goat anti-human IgG Fab-HRP, OD450.

Assay [5] concerns the target human FcRn (human FCGRT and B2M) on stably transfected MDCK cells (human, UniProt P55899 24-365; P61769 21-119). As to the kind of experiment: cell-based or functional assay.
The target of assay [6] is T3, human FCGRT. As to the kind of experiment: ELISA: human FCGRT coated, antibody titrated, goat anti-human IgG Fab-HRP, OD450.
Description: (§1) Measurement of the binding specificity of anti-FcRn antibodies to FCGRT and B2M by EILSA: Briefly, human FCGRT or B2M was coated on a 96-well plate at 4° C. overnight, after removing the coating solution, a blocking buffer containing 1% BSA was added into the plates followed by incubation at room temperature for 1 hour to block unspecific binding. Plates were then washed with wash buffer, and serial dilutions of anti-FcRn antibodies were added to the wells and incubated at room temperature for 1 hour. […] The wells were washed before adding 100 μL/well of TMB and incubated for 5-10 minutes at 37° C. 2M H₂SO₄ was used to stop the reaction. […] The ELISA results (OD450) were analyzed, and the binding curves were generated by Graphpad PRISM.
Assay [7] deals with T3, human FCGRT. As to the kind of experiment: competition ELISA: human IgG coated, biotinylated human FCGRT plus antibody, SA-HRP.
Description: After removing the coating solution, the wells were blocked with a blocking buffer containing 1% BSA at room temperature for 1 hour. Plates were then washed with wash buffer. […] After incubation, 100 μL of SA-HRP (1:20,000) was added to each well and incubated for 1 hour at 37° C. The wells were washed before adding 100 μL/well of TMB and incubated for 5-10 minutes at 37° C. 2M H₂SO₄ was used to stop the reaction. […] The ELISA results (OD450) were analyzed, and the binding curves were generated by PRISM.
The target in assay [8] is T5, Human recombinant FCGRT & B2M Heterodimer Protein (hFcRn) (human, UniProt P55899 24-297; P61769 21-119).
T5 construct: Bought protein; also called human FcRn
T5 sequence (P55899 24-297 limits assumed, chain 1 of 2): as the sequence (P55899 24-297 limits assumed) above
T5 sequence (P61769 21-119 limits assumed, chain 2 of 2): as the sequence (P61769 21-119 limits assumed) above
The assay can be described thus: ELISA, hFcRn coated at 1 ug/mL, IgG4 antibody titrated, anti-human IgG Fab-HRP.
Description: hFcRn binding of purified full-length chimeric antibodies: The hFcRn antigen binding ELISA was performed on the purified full-length chimeric antibodies (reformatted as IgG4). Briefly, plates were coated overnight at 4° C. with 1 μg/mL of hFcRn (cat #CT009-H08H) in PBS. After removing the coating solution, the wells were blocked by adding blocking buffer and incubated at room temperature for 1 hour. Plates were then washed 6 times with wash buffer. Serial dilutions of purified antibodies in PBS were added to individual wells followed by incubation at room temperature for 1 hour. Plates were washed 6 times with wash buffer. […] Plates were incubated at 37° C. for 1 hour, washed 6 times with wash buffer, and developed for 5-10 minutes with 50 L/well of TMB substrate, then quenched with 2M H₂SO₄. […] The ELISA results (OD450) were analyzed, and the binding curves were generated by Graphpad PRISM.

Assay [9] addresses T6, Rattus norvegicus FcRn-alpha (rat, UniProt P13599 23-298).
T6 construct: Alpha chain alone; also called rFcRn; rat FcRn; not shown: His tag and Avi tag
T6 sequence: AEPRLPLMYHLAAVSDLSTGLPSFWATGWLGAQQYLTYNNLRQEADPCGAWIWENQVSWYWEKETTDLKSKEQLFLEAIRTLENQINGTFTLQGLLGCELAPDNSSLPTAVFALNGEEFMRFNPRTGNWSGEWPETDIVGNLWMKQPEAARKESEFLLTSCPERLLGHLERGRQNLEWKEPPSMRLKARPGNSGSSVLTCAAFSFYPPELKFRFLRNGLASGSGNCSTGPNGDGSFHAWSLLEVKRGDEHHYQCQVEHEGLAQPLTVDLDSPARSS
The assay can be described thus: ELISA: rFcRn coated, antibody titrated, goat anti-human IgG Fab-HRP, OD450.

Assay [10] has as its target T3, human FCGRT. The assay can be described thus: ELISA: human FCGRT coated, antibody titrated, goat anti-human IgG Fab-HRP, OD450. This is another data set of the same source.
Description: as §1

Read-outs that look alike come from different tables or passages of the source.

T4 sequence (Q8SPV9 24-297 limits assumed): as the sequence (P55899 24-297 limits assumed) above, with N39D, E44Q, G99S, S189G, S190N, L217M, S269T counted along it
human FcRn (human FCGRT and B2M) on stably transfected MDCK cells, sequence (P55899 24-365, chain 1 of 2): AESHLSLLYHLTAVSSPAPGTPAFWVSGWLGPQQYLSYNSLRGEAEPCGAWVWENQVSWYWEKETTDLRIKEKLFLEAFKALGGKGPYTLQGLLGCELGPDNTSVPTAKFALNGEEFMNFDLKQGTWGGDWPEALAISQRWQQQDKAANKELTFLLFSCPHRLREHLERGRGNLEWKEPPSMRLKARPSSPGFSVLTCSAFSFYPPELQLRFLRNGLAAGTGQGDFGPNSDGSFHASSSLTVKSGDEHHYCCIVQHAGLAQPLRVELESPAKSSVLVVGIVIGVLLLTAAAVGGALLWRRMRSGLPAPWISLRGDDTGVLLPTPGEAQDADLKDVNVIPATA
human FcRn (human FCGRT and B2M) on stably transfected MDCK cells, sequence (P61769 21-119, chain 2 of 2): as the sequence (P61769 21-119 limits assumed) above

For “Human IgG (Jackson ImmunoResearch, cat #009-000-003) (antibody)”, the EC50 (read off the curve) in [1] worked out at 30 nM.

B1: ZLP17 (antibody, V domains shown)
VH: QIQLLQSGAELARPGASVKMSCKASGYTFTSYTMHWVKQRPGQGLEWIGYINPSSGYTNYNQKFKDKATLTADKSSSTAYMQLSSLTSEGSAVYYCARSGLRRVLDYWGQGTSVTVSS
VL: ENVLTQSPAILSASPGEKVTMTCSASSSVSYMYWYQQKPGSSPRLLIYDTSNLASGVPVRFSGSGSGTSYSLTISRMEAEDAATYYCQQWSSYPRTFGGGTKLEIK
notes: Full-length chimeric antibody with human IgG1 or IgG4 heavy constant and human kappa or lambda light constant domain
Regarding B1, the binding result in assay [2] is “no binding (tested: about 700 nM (Log[Ab] about 2.8))”. In assay [3], the “IC50 (read off the curve)” value was approximately 20 nM. Besides, the entries for the “EC50 (read off the curve)” value in [1], in assay [4] and in [6] were approximately 30 nM, approximately 7 nM and approximately 20 nM, respectively. Also, the “IgG Recycle IC50” value in assay [5] was determined as 3.24 nM.

B2: ZLP198 (antibody, V domains shown)
VH: EVKLMESGPDLVKPSQSLSLTCTVTGYSITSGYSWHWIRHFPGKKLEWMGYIHNSGSTNYNPSLKSRISISRETSKNQFFLQLNSVTTEDTATYYCAREGYGGYWYFDVWGAGTSVTVSS
VL: DIVLTQSPAIMSASPGEKVTMTCSASSSVSYMYWYQQKPGSSPKPWIYGTSNLASGVPVRFSGSGSGTSYSLTISRMEAEDAATYYCQQRSSYPYTFGGGTKLEIK
notes: as for B1
Regarding B2, in assay [2], the binding result was “no binding (tested: about 700 nM (Log[Ab] about 2.8))”. The “EC50 (read off the curve)” value in assay [1] was approximately 10 nM; in assay [4], approximately 6 nM; in assay [6] it was approximately 20 nM.

B3: ZLP44 (antibody, V domains shown)
VH: EVQLQQSGPELVKPGASVKVSCKASGYIFTSYNMYWMKQSHGKSLEWIGYIDPYNGGTRYNQKFKGKATLTVDKSSSTAYMHLNSLTSEDSAVYYCAVDGYNGAMDYWGQGTSVTVSS
VL: QIVLTQSPASLAVSLGQRATISCRASESVDSYGNSFMHWYQQKPGQPPKLLIYRASNLESGIPARFSGSGSRTDFTLTINPVEADDVATYYCQQSNEDPYTFGGGTKLEIK
notes: Full-length chimeric antibody; human kappa or lambda light constant domain
Regarding B3, the binding result in assay [2] and in assay [9] was “no binding (tested: about 700 nM (Log[Ab] about 2.8))” each time. In addition, in assay [7], the IC50 was 12.3 nM. In addition, the EC50 in [8] was found to be 0.673 nM. The “EC50 (read off the curve)” value in [4] and in assay [10] was approximately 0.1 nM in each case. Also, the “IgG Recycle IC50” value in [5] was 2.5 nM.

B4: ZLP42 (antibody, V domains shown)
VH: QVQLQQPGAELVKPGASVKLSCTASGFNIKDTYMYWVKQRPEQGLEWIGRIDPANGITKFDPKFQDKATVTADTFSNIAYLHLSSLTSEDTAVYYCTTTAVMATEAMDRWGQGTSVTVSS
VL: QIVLTQSPASLAVSLGQRATISCRASESVDSYGNSFMHWYQQKPGQPPKLLIYRASNLESGIPARFSGSGSRTDFTLTINPVEADDVATYYCQQSNEDPYTFGGGTKLEIK
notes: Full-length chimeric antibody
With B4, the binding result in assay [2] and in assay [9] was “no binding (tested: about 700 nM (Log[Ab] about 2.8))” each time. In addition, the IC50 in assay [7] came out at 10.9 nM. The concentration for a half-maximal effect (EC50) in assay [8] is 0.981 nM. Moreover, the concentration giving a half-maximal response (EC50 (read off the curve)) in [10] was approximately 0.2 nM.

B5: ZLP64 (antibody, V domains shown)
VH: QIQLLQSGPELVKPGASVKVSCKASGYIFTSYNMYWMKQSHGKSLEWIGYIDPYNGGTNYNQKFKGKATLTVDKSSSTAYMHLNSLTSEDSAVYYCAVDGYNGAMDYWGQGTSVTVSS
VL: DIVLTQSPASLTVSLGQRATISCRASESVDRYGNSFMHWYQQKPGQPPKLLIYRASNLESGVPARFSGSGSRTDFTLTINPVEADDVASYYCQQSNEDPLTFGAGTKLELK
notes: as for B3
On to B5, for which the binding result in assay [2] and in [9] was “no binding (tested: about 700 nM (Log[Ab] about 2.8))” each time. Also, in [7], the IC50 amounted to 12.5 nM. Also, in [8], the half-maximal effective concentration (EC50) is 0.212 nM. Moreover, the figures for the “EC50 (read off the curve)” value in [4] and in assay [10] were approximately 0.08 nM and approximately 0.3 nM, respectively. For the same molecule, the “IgG Recycle IC50” value in assay [5] was 10.7 nM.

B6: ZLP193 (antibody, V domains shown)
VH: EVQLQESGPDLVKPSQSLSLTCTVTGYSFTSGYSWHWIRQFPGNRLEWMGYIHDSGGTNYNPSLKSRISITRDTSKNQFFLQLNSVTTEDTATYYCAREENYRYFDVWGAGTTVTVSS
VL: DIQMMQSPAIMSASPGEKVTITCSASSSVSYMHWFQQKPGTSPKLWIYSTSNLASGVPARFSGSGSGTSYSLTISRMEAEDAATYYCQQRSSYPPTFGDGTRLEIK
notes: Full-length chimeric antibody: mouse variable domains with human IgG1 or IgG4 heavy constant domain and human kappa or lambda light constant domain; also called chimeric anti-FcRn antibody ZLP193
On to B6, for which the binding result in assay [2] and in assay [9] was “no binding (tested: about 700 nM (Log[Ab] about 2.8))” each time. Also, in assay [7], the IC50 came to 8.7 nM. The concentration giving a half-maximal response (EC50 (read off the curve)) in assay [1] is approximately 9 nM; in assay [4] it was approximately 0.3 nM; in assay [6], approximately 1 nM. The EC50 in assay [8] is 0.439 nM. Further, the “IgG Recycle IC50” value in assay [5] came to 10.1 nM.

B7: ZLP57 (antibody, V domains shown)
VH: QVQLKESGPDLVKPSQSLSLTCTVTGYSITSGYSWHWIRQFPGNKLEWMTYIHSSGSTNYNPSLKSRISITRDTSKNQFFLQLKSVTTEDTATYYCAREVYGNYYWYFDVWGAGTTVTVSS
VL: DIVMTQSPAIMSASLGEEITLTCSASSSVSYMHWYQQKSGTSPKLLIYSTSNLASGVPARFSGSGSGTSYSLTISRMEAEDAATYYCQQRSSYPYTFGGGTKLEIK
notes: as for B1
As to B7, the binding result in assay [2] is “no binding (tested: about 700 nM (Log[Ab] about 2.8))”. The IC50 in assay [7] was found to be 8.88 nM.

B8: ZLP22 (antibody, V domains shown)
VH: EVKLVESGAELARPGASVKMSCKASGYTFTSYAMHWVKQRPGQGLEWIGYINPSSGYTNYNQKFKDKATLTADKSSSTAYMQLSSLTSEDSAVYYCARKGLRYAVDYWGQGTSVTVSS
VL: DIVMTQSPSSLSVSAGEKVTMSCKSSQSLLNSGNQKNYLAWYQQKPGQPPKLLIYGASTRESGVPDRFTGSGSGTDYTLTISSVQAEDLALYYCQQHYSTPYTFGGGTKLEIK
notes: as for B3
Take B8: the binding result in [2] and in [9] was “no binding (tested: about 700 nM (Log[Ab] about 2.8))” in each case. Further, the “IC50 (read off the curve)” value in [3] was approximately 30 nM. In addition, the “EC50 (read off the curve)” value in assay [1] is approximately 20 nM; in assay [4], approximately 0.8 nM; in assay [6], approximately 7 nM. Besides, the EC50 in assay [8] was 2.39 nM. In assay [5], the “IgG Recycle IC50” value is 5.01 nM.

What is called EC50 (read off the curve) is the midpoint of the concentration-response curve. The IC50 is the concentration at which inhibition is half-maximal. What is called EC50 is the concentration at which the effect is half-maximal.

The values above are taken from patent US20250136699A1 (JIANGSU BIOJETAY BIOTECHNOLOGY, published 2025).
